Results on two substances are retold here after article PMC5062604.

The target in this experiment is Pseudomonas aeruginosa type I-F CRISPR-Cas surveillance complex (Csy complex) (P. aeruginosa) (UniProt Q02MM1). Put plainly: SEC; competition: purified Csy complex pre-incubated 1 h with a 10-fold molar excess of FLAG-tagged AcrF1 (mutant or wild type), then an equal amount of HA-tagged wild-type AcrF1 added for 1 h; size exclusion chromatography; peak fractions by SDS-PAGE, silver staining and Western blot. For orientation: In gel filtration, larger molecules generally elute earlier.

Consider “FLAG-tagged AcrF1 E31A (natural protein)”, for which the percent exchanged with HA-tagged wild-type AcrF1 at 1 h was found to be 50%.
For “FLAG-tagged AcrF1 Y20A (natural protein)”, the percent exchanged with HA-tagged wild-type AcrF1 at 1 h is 50%.
